# Where two headings read alike, the source gives them in different places. Marks after values point to notes of the source that are not given here.
# Assays:
# Solubility in PBS (A280) = format: physicochemical
# Experimental: PEG Length and Counterion Affects Solubility: The solubility of the acetate and carbonate salt form of each compound was determined as follows. For EXT611, EXT606, and EXT608, phosphate buffered saline (PBS) was added to each compound to form a saturated solution. Undissolved compound was removed by centrifugation. The concentration of dissolved compound was determined by measuring the absorbance at 280 nm using an extinction coefficient of 18,600 M^−1 cm^−1. For EXT615, EXT616, and EXT617, solubility was limited practically by the high viscosity imparted by the large PEG moieties. Highly viscous drug formulations are difficult to manipulate and require large needle bore sizes that cause increased injection site pain. PBS was added to EXT615, EXT616, and EXT617 incrementally until a solution was obtained that could be successfully pipetted through a pipet tip with a bore of approximately 1 mm diameter (enlarged by removing the end with a razor blade). The concentration of dissolved compound was determined by measuring the absorbance at 280 nm using an extinction coefficient of 18,600 M^−1 cm^−1. […] For EXT608, the acetate salt was 17.6-fold more soluble than the carbonate salt.
# [1] = Single dose pharmacokinetics of EXT608 in healthy humans; format: in vivo; settings: human
# Experimental: EXT608 vastly improves the serum half-life in humans in a dose-dependent manner. Sterile EXT608 formulations were prepared at a concentration of 0.4 mg/ml in 10 mM sodium acetate buffer pH=5.5, 4.5% mannitol, and 0.25% Polysorbate 80 and filled into sterile vials. Healthy human participants were administered EXT608 by subcutaneous injection in the abdomen at doses of 0, 36, 108, 216, or 324 micrograms (n=3).
# Pharmacokinetics: 4 ml Blood samples were collected at −24, −1, 0.5, 1, 2, 4, 8, 12, 18, 24, 36, 48, and 72 hours relative to dosing as well as on Days 5, 7, 14, 21, and 28 after dosing. They were processed to K2EDTA plasma. […] Pharmacokinetic parameters were calculated for each individual using Kinetica software (ThermoFisher Scientific, Waltham, MA), and the parameter means and standard deviations are given in Table 12. For the lower doses (36, 108, and 216 μg), an accurate elimination half-life (t1/2) could not be determined because of limited timepoints with EXT608 concentrations above the lower limit of quantitation.
# [2] = test system: healthy human participants; assay: Single dose pharmacodynamics of EXT608 in healthy humans (serum calcium, endogenous PTH(1-84), urinary calcium); format: in vivo; settings: any dose level tested, about 36 hours post-administration (data not shown)
# Experimental: EXT608 vastly improves the serum half-life in humans in a dose-dependent manner. Sterile EXT608 formulations were prepared at a concentration of 0.4 mg/ml in 10 mM sodium acetate buffer pH=5.5, 4.5% mannitol, and 0.25% Polysorbate 80 and filled into sterile vials. Healthy human participants were administered EXT608 by subcutaneous injection in the abdomen at doses of 0, 36, 108, 216, or 324 micrograms (n=3). Pharmacodynamics: Blood samples were collected at −24, −1, 0.5, 1, 2, 4, 8, 12, 18, 24, 36, 48, and 72 hours relative to dosing as well as on Days 5, 7, 14, 21, and 28 after dosing. They were processed to serum and submitted to Quest Diagnostics for standard blood chemistry analysis including total calcium and albumin. EXT608 raised serum calcium levels in a dose-dependent fashion and was able to maintain elevated calcium levels for 24 h. Blood samples (1.5 ml) were collected at −1, 4, 24, 48, and 72 hours relative to dosing as well as on Days 5, 7, 14, 21, and 28 after dosing. They were processed to EDTA plasma and submitted to Quest Diagnostics for intact PTH(1-84) analysis (Test Code #35202). In healthy humans, under conditions of elevated serum calcium, the body will attempt to restore normal calcium levels by a variety of mechanisms including suppression of endogenous PTH(1-84). […]
# [3] = in vivo, 36 ug, single 36 μg SC
# [4] = in vivo, 108 ug, single 108 μg SC
# [5] = in vivo, 216 ug, single 216 μg SC
# [6] = in vivo, 324 ug, single 324 μg SC
smiles,measurement,setting,value
C=C1CC[C@H](OCCCNC(=O)CCOCCOCCOCCOCCOCCOCCOCCOCCOCCOCCOCCOCCOCCOCCOCCOCCOCCOCCOCCOCCOCCOCCOCCOCCOCCOCCOCCOCCOCCOCCOCCOCCOCCOCCOCCOCCNC(=O)CCN2C(=O)CC(SC[C@H](NC(=O)[C@H](Cc3ccccc3)NC(=O)[C@H](CC(N)=O)NC(=O)[C@H](Cc3c[nH]cn3)NC(=O)[C@@H](NC(=O)[C@H](CC(=O)O)NC(=O)[C@H](CCC(N)=O)NC(=O)[C@H](CC(C)C)NC(=O)[C@H](CCCCN)NC(=O)[C@H](CCCCN)NC(=O)[C@H](CCCNC(=N)N)NC(=O)[C@H](CC(C)C)NC(=O)[C@H](Cc3c[nH]c4ccccc34)NC(=O)[C@H](CCC(=O)O)NC(=O)[C@@H](NC(=O)[C@H](CCCNC(=N)N)NC(=O)[C@H](CCC(=O)O)NC(=O)[C@H](CCSC)NC(=O)[C@H](CO)NC(=O)[C@H](CC(N)=O)NC(=O)[C@H](CC(C)C)NC(=O)[C@H](Cc3c[nH]cn3)NC(=O)[C@H](CCCCN)NC(=O)CNC(=O)[C@H](CC(C)C)NC(=O)[C@H](CC(N)=O)NC(=O)[C@H](Cc3c[nH]cn3)NC(=O)[C@H](CCSC)NC(=O)[C@H](CC(C)C)NC(=O)[C@H](CCC(N)=O)NC(=O)[C@@H](NC(=O)[C@H](CCC(=O)O)NC(=O)[C@H](CO)NC(=O)[C@@H](NC(=O)[C@@H](N)CO)C(C)C)[C@@H](C)CC)C(C)C)C(C)C)C(N)=O)C2=O)C/C1=C/C=C1\CCC[C@]2(C)[C@@H]([C@H](C)CCCC(C)(C)O)CC[C@@H]12 (stereo partly shown) [EXT608],"fold more soluble, acetate salt vs carbonate salt",Solubility in PBS (A280),17.6 fold
same,solubility,"Solubility in PBS (A280); acetate salt, read-out: Solubility as Acetate",9.67 mM
same,solubility,"Solubility in PBS (A280); carbonate salt, read-out: Solubility as Carbonate",0.55 mM
same,tlast,[1]; single 36 μg SC,24 h
same,tlast,"[1]; single 108 μg SC, 48 h (n = 1) or 72 h (n = 2)",48/72^a
same,tlast,[1]; single 216 μg SC,48/72/120
same,tlast,[1]; single 324 μg SC,168 h
same,AUC(0-t),[1]; [3],5.9 ± 2.7 ng·h/mL
same,Cmax,[1]; [3],0.49 ± 0.27 ng/mL
same,Tmax,[1]; [3],3.3 ± 1.2 h
same,AUC(0-t),[1]; [4],29.2 ± 8.4 ng·h/mL
same,Cmax,[1]; [4],1.2 ± 0.3 ng/mL
same,Tmax,[1]; [4],5.3 ± 2.3 h
same,AUC(0-t),[1]; [5],41.7 ± 17.4 ng·h/mL
same,Cmax,[1]; [5],1.3 ± 0.5 ng/mL
same,Tmax,[1]; [5],4 h
same,AUC(0-inf),[1]; [6],151 ± 16 ng·h/mL
same,AUC(0-t),[1]; [6],118 ± 11 ng·h/mL
same,Cmax,[1]; [6],5 ± 2 ng/mL
same,MRT,[1]; [6],105 ± 18 h
same,Tmax,[1]; [6],2.7 ± 1.2 h
same,half-life,[1]; [6],90 ± 13 h
same,Vd/F,"[1]; in vivo, 324 ug, single 324 μg SC, read-out: VZ/F",280 ± 42 L
same,CL/F,"[1]; plasma, 324 ug, single 324 μg SC",36.7 mL/min
same,effect on urinary calcium,[2],did not cause a significant increase

# — patent US12233115B2, “Long-acting parathyroid hormone” (Extend Biosciences, Inc., priority 2022, dated 2025)
